# Experimental data taken from patent US12359199B2, “Regulation of gene expression via aptamer-mediated control of self-cleaving ribozymes” (MEIRAGTX UK II LIMITED, priority 2016, dated 2025).
# Values joined by “and” are separate entries in the source; they are usually repeats but may differ in a detail not shown here. Equal values may be shown once.
# What was measured:
# Assay type in all cases: cell-based
# [1] = system: mouse erythropoietin (Epo) gene expression in HEK 293 cells; assay: ELISA assay for measuring mouse Epo in culture media of transfected HEK 293 cells; settings: riboswitch in 3′ UTR of mouse Epo gene; ligand-treated vs solvent-treated control cells; supernatant 18 hours after treatment
# Method: FIG. 3e. HEK 293 cells were transfected with the indicated constructs, and treated with 500 μM guanosine. DMSO was used as solvent control. Supernatant was collected 18 hours after guanosine treatment, the Epo was measured using ELISA kit. The results were expressed as mean±SD (n=2). Shown is the representative of two independent experiments.
# ELISA assay for measuring mouse Epo in culture media: Supernatant was collected 18 hours after drug treatment, and an ELISA was performed using ELISA kit (R&D) according to manufacturer's instructions. The data was analyzed using 4-parameter curve fitting.
# [2] = system: firefly luciferase expression in HEK 293 cells; assay: Firefly luciferase assay of transfected HEK 293 cells treated with or without guanine or guanosine; settings: riboswitch in 3′ UTR
# Method: Firefly luciferase assay of cultured cells: 24 hours after media change, plates were removed from the incubator, equilibrated to RT for several minutes on a lab bench, and then aspirated. Glo-lysis buffer (Promega, 100 μL, RT) was added, and the plates allowed to remain at RT for at least 5 minutes. The well contents were mixed by 50 μL trituration, and 20 μL of each sample was mixed with 20 μL of bright-glo reagent (Promega) that had been diluted to 10% in glo-lysis buffer. 96 wells were spaced on an opaque white 384-well plate. Following a 5-minute incubation at RT, luminescence was measured using a Tecan machine with 500 mSec read time. The luciferase activity was expressed as mean relative light unit (RLU)±S.D. […]
# Transfection and aptamer ligand treatment: HEK 293 cells were transfected as described in Example 1. Four hours after transfection, the media was aspirated, and new media with or without 500 μM guanine or 1 mM guanosine (Sigma) was added. Luciferase assay was performed 20 to 24 hours after guanine or guanosine treatment as described in Example 2. The reduction fold was expressed as the quotient of luciferase activity obtained in the absence of aptamer ligand divided by the value obtained in the presence of the aptamer ligand.
# Oligos containing either a start codon or coding sequence for the first 10 amino acids of GFP and waspGua16 followed by a linker2A sequence were synthesized (IDT) and cloned into the pLuc vector using the Gibson cloning strategy and cloning kit (NEB). Transfection and luciferase assay of cultured cells were performed as described in Example 3. […]
# [3] = system: firefly luciferase expression in HEK 293 cells; assay: Firefly luciferase assay of transfected HEK 293 cells treated with or without theophylline
# Method: Firefly luciferase assay of cultured cells: 24 hours after media change, plates were removed from the incubator, equilibrated to RT for several minutes on a lab bench, and then aspirated. Glo-lysis buffer (Promega, 100 μL, RT) was added, and the plates allowed to remain at RT for at least 5 minutes. The well contents were mixed by 50 μL trituration, and 20 μL of each sample was mixed with 20 μL of bright-glo reagent (Promega) that had been diluted to 10% in glo-lysis buffer. 96 wells were spaced on an opaque white 384-well plate. Following a 5-minute incubation at RT, luminescence was measured using a Tecan machine with 500 mSec read time. The luciferase activity was expressed as mean relative light unit (RLU)±S.D.
# Oligos containing the twister ribozyme sequence linked with theophylline aptamer were synthesized (IDT), and cloned into pLuc vector using Gibson cloning strategy and kit (NEB). Construct sequences were verified by DNA sequencing (Genewiz).
# Transfection and firefly luciferase assay: HEK 293 cells were transfected as described in Example 1. Four hours after transfection, the media was aspirated, and new media with or without 2 mM theophylline (Sigma) was added. […] The reduction fold was expressed as the quotient of luciferase activity obtained in the absence of aptamer ligand divided by the value obtained in the presence of the aptamer ligand.
Molecule,reduction of Epo production [1],fold reduction in luciferase activity upon guanine treatment ([2]; 500 μM guanine vs no guanine),reduction in luciferase activity upon guanine treatment ([2]; 500 μM guanine vs no guanine) [%],reduction in luciferase activity upon guanine treatment (in words) ([2]; 500 μM guanine),fold reduction in luciferase expression upon guanosine treatment ([2]; guanosine at 1 mM as aptamer ligand) [fold],reduction in gene expression (luciferase activity) upon theophylline treatment ([3]; 2 mM theophylline vs no theophylline) [%],luciferase activity in the absence of aptamer ligand (in words) ([3]; no theophylline)
"Luci-waspGua16: Luciferase construct with 3 bp of stem connecting the guanine aptamer directly to twister loop 2; OFF riboswitch in 3′ UTR (nucleic acid, misc_feature 1..247 waspGua16 in pLuc, Luciferase construct with 3 bp of stem connecting the guanine aptamer directly to twister loop 2; OFF riboswitch in 3′ UTR) DNA: TCAGAGAGATCCTCATAAAGGCCAAGAAGGGCGGAAAGATCGCCGTGTAAACGCCTTGTAATGCGGCATATAATCGCGTGGATATGGCACGCAAGTTTCTACCGGGCACCGTAAATGTCCGACTATTCGGTCTCAAGCCCGATAAACGCAGAGAGCAAGGCGGCCGCCATACCACATTTGTAGAGGTTTTACTTGCTTTAAAAAACCTCCCACACCTCCCCCTGAACCTGAAACATAAAATGAATGC",approximately 30%,15 fold and 12 fold,92,reduced luciferase activity,25,,
"twister_theo_3: Theophylline aptamer linked by 3 bp stem to loop 2 of twister ribozyme, in pLuc (nucleic acid, misc_feature 1..219 twister_theo_3 in pLuc, Theophylline aptamer linked by 3 bp stem to loop 2 of twister ribozyme, in pLuc) DNA: TCAGAGAGATCCTCATAAAGGCCAAGAAGGGCGGAAAGATCGCCGTGTAAACGCCTTGTAATGCGGCGCGATACCAGCCGAAAGGCCCTTGGCAGCGTTCGGTCTCAAGCCCGATAAACGCAGAGAGCAAGGCGGCCGCCATACCACATTTGTAGAGGTTTTACTTGCTTTAAAAAACCTCCCACACCTCCCCCTGAACCTGAAACATAAAATGAATGC",,,,,,62,the most robust luciferase activity
